Laboratory results as given in PMC12192291, “Ancestral [Fe-S] biogenesis system SMS has a unique mechanism of cluster assembly and sulfur utilization” (PLOS Biology, 2025).

B1: SmsB from Methanocaldococcus jannaschii (natural protein)
chain: MSIKEELMEIIEAIKYTSEKPEEIVHGKGPRIIVKESRIIDVQGDEGIILEGKEEDGKIKAKIIVKKGYKFKYPIHMCFGITEENISQIIDVEIILEEDSSISLMSHCSFPKGKGIKHIMNGIIKIGKNAKFSYNEFHYHGMDGDILVKPTVKVEIDEGGIYISNFTLTKGRIGTLDIEQEIIAKKDAIIDITTRTYAIKEDVVKVNEVVKLNGENAKCIIKSRGAAMDNSKISLKLKIEGNAPYSKGHIDCAEIVKGNAEVESIPIVVVRDDKARITHEAAIGSVDKKQLETLMAKGLDEDEATEIIVKGMIGDL
notes: SmsB, Methanocaldococcus jannaschii, subunit of the SMS system; Mainly a homodimer in solution; two copies in SmsC2B2; also called SmsB2; source: E. coli MG1655(DE3) (FBE682), purified (HisTrap, TEV protease, Ni-NTA, SEC); not shown: His6, N-terminal, cleaved

Assays:
SmsC [1] = molecular target: T1, SmsC (Methanocaldococcus jannaschii, UniProt Q60350); experiment: ligand-induced dimerization by size exclusion chromatography; blocks [Fe-S] reconstitution on SmsC2B2; type: binding; set-up: gene MJ0035; SmsC, His-tag removed
T1 sequence (Q60350 1-250): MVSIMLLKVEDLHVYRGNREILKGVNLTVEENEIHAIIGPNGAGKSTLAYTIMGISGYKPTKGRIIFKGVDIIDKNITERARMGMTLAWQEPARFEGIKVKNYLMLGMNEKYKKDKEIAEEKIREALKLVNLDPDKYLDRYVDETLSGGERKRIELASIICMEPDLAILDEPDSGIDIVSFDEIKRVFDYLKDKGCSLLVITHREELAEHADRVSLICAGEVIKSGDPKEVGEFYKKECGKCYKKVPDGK

SmsC [2] = molecular target: T1, SmsC; experiment: enzyme-coupled ATPase assay (PK/LDH) on purified protein; type: biochemical; set-up: gene MJ0035; SmsC alone and SmsC2B2 complex
[3] = molecular target: the molecule itself; experiment: SEC; calibrated Hiload 600 Superdex 200, 50 mM Tris-HCl pH 7.8, 100 mM NaCl, 1 mM DTT; no nucleotide; for the complex SmsB2 and SmsC were mixed in molar amounts corresponding to SmsC2B2 and incubated overnight
[4] = molecular target: B1; experiment: as above; settings: both partners purified
[5] = molecular target: the molecule itself; experiment: cryo-EM structure; chemically reconstituted [4Fe-4S]-bound SmsC2B2, prepared under anoxic conditions and quickly vitrified (9H78, EMD-51913)

Nc1ncnc2c1ncn2[C@@H]1O[C@H](CO[P@](=O)(O)O[P@](=O)(O)CP(=O)(O)O)[C@@H](O)[C@H]1O [AMP-PCP]
ligand-induced dimerization by size exclusion chromatography; blocks [Fe-S] reco (SmsC [1]): Incubation of SmsC with excess of adenosine-5′-[(β,γ)-methyleno]triphosphate (AMP-PCP) led to SmsC dimer formation

Nc1ncnc2c1ncn2[C@@H]1O[C@H](COP(=O)(O)OP(=O)(O)OP(=O)(O)O)[C@@H](O)[C@H]1O [ATP]
enzyme-coupled ATPase assay (PK/LDH) on purified protein (SmsC [2]): 0.98 min⁻¹ (kcat)

B1
stoichiometry N [3]: 2

B2: SmsC from Methanocaldococcus jannaschii (enzyme)
chain: MVSIMLLKVEDLHVYRGNREILKGVNLTVEENEIHAIIGPNGAGKSTLAYTIMGISGYKPTKGRIIFKGVDIIDKNITERARMGMTLAWQEPARFEGIKVKNYLMLGMNEKYKKDKEIAEEKIREALKLVNLDPDKYLDRYVDETLSGGERKRIELASIICMEPDLAILDEPDSGIDIVSFDEIKRVFDYLKDKGCSLLVITHREELAEHADRVSLICAGEVIKSGDPKEVGEFYKKECGKCYKKVPDGK
notes: SmsC, Methanocaldococcus jannaschii, ABC ATPase subunit of the SMS system; Monomer in solution without nucleotide; two copies in SmsC2B2; In the cryo-EM sample one of the two copies carries a [4Fe-4S] cluster; also called apo-SmsC; source: E. coli MG1655(DE3) (FBE682), purified (HisTrap, TEV protease, Ni-NTA, SEC); not shown: His6, N-terminal, cleaved
binding result [4]: binds | binding result [5]: binds
